One molecule from publication PMC4003909 (Structure (London, England : 1993), 2013) can be followed below.

For assay [1], the target named is T1, BCORL1 PUFD (1594-1711) with METR leader, co-expressed and purified with PCGF1 RAWUL (human, UniProt Q5H9F3-1 1594-1711).
T1 sequence: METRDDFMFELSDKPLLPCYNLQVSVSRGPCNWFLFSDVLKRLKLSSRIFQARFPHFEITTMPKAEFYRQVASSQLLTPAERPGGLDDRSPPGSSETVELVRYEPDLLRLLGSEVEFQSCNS
The assay is described as follows: AUC.

Assay [2] has as its target BCOR PUFD (1634-1748) with METR leader, co-expressed and purified with PCGF1 RAWUL (human, UniProt Q6W2J9 1634-1748). The assay is described as follows: AUC.

B1: PCGF1 RAWUL (167-255), co-expressed and purified with a PUFD (domain or fragment, human, UniProt Q9BSM1 167-255, looked up)
chain: EQLNLCLERLSSGKDKNKSVLQNKYVRCSVRAEVRHLRRVLCHRLMLNPQHVQLLFDNEVLPDHMTMKQIWLSRWFGKPSPLLLQYSVK
What is called Kd is the constant that tells how readily two partners part at equilibrium. Read a low Kd as a tighter complex. With B1, the Kd in assay [1] and in assay [2] was < 8.5 µM in each case.
